# Laboratory results as given in US20220332835A1 (SHANGHAITECH UNIVERSITY, published 2022).
# T1: human CXCR2 (hCXCR2) on cells (human, UniProt P25025 1-360)
# T1 sequence (looked up): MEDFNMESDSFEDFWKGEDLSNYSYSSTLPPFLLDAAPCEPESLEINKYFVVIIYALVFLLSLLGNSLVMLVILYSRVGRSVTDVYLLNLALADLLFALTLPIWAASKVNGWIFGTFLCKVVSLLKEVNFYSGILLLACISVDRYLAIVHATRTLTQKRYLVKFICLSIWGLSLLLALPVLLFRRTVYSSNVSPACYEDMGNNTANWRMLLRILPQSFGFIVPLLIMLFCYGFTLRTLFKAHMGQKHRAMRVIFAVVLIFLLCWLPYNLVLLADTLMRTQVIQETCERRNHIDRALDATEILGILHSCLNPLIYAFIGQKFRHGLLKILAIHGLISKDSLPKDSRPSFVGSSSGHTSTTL
# T2: pepN48 (peptide of the 48 N-terminal extracellular amino acids of human CXCR2) (human, biotin labeled on its N-terminus (panning, ELISA, SPR))
# T2 construct: Synthetic; also called N-terminus of CXCR2
# T2 peptide: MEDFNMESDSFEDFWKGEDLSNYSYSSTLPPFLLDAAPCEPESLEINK
# T3: rbCXCR2-mCherry (rabbit, UniProt P35344 1-358)
# T3 construct: whole, on cells; Overexpressed in U2OS cells; also called rabbitCXCR2; CXCR2 of rabbit; not shown: mCherry fluorescent tag
# T3 sequence (looked up): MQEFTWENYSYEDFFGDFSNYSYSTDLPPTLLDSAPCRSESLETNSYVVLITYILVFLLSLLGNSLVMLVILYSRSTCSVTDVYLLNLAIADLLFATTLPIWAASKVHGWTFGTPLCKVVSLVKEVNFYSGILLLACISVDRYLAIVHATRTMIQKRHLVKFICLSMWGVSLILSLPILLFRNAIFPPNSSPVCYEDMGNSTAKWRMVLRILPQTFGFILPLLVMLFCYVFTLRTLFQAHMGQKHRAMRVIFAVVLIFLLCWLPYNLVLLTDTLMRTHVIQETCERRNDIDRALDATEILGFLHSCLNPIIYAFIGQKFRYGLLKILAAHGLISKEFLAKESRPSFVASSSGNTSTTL
# T4: rCXCR2-mCherry (rat, UniProt P35407 1-359)
# T4 construct: whole, on cells; Overexpressed in U2OS cells; also called CXCR2 of rat; not shown: mCherry fluorescent tag
# T4 sequence (looked up): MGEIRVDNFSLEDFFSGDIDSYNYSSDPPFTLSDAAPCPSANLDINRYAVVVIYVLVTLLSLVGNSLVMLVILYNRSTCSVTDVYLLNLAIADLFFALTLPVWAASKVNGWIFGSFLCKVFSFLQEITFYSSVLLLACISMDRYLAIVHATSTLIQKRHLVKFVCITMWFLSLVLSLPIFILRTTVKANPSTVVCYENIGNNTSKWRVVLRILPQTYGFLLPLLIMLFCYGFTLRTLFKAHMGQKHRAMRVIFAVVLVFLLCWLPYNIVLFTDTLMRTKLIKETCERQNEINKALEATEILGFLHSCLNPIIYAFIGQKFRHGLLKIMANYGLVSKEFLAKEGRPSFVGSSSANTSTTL
# T5: hCXCR1-mCherry (human, UniProt P25024 1-350)
# T5 construct: whole, on cells; Overexpressed in U2OS cells; not shown: mCherry fluorescent tag
# T5 sequence (looked up): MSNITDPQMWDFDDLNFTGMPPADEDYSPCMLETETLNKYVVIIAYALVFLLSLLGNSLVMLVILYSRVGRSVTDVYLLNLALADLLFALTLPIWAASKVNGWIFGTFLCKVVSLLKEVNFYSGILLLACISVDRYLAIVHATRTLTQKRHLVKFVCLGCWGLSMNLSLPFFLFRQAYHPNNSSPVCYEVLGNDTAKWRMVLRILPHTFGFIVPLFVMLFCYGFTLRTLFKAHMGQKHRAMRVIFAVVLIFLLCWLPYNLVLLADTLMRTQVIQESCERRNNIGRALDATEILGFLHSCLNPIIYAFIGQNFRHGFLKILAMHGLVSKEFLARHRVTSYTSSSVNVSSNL
# T6: mCXCR2-mCherry (mouse, UniProt P35343 1-359)
# T6 construct: whole, on cells; Overexpressed in U2OS cells; also called CXCR2 of mouse; not shown: mCherry fluorescent tag
# T6 sequence (looked up): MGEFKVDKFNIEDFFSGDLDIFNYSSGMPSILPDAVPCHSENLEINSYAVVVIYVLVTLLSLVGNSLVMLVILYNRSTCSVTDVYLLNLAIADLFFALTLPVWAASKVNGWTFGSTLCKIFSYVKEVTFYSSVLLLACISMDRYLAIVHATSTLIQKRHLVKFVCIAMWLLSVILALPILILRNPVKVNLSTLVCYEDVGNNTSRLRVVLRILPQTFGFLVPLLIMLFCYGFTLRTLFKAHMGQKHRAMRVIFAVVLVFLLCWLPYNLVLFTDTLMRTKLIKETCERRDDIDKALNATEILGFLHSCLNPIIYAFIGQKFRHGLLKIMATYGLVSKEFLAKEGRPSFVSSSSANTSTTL
# T7: pepN48Δ9-19 (human)
# T7 construct: pepN48 with residues 9-19 deleted; also called pepN48 lacking 9-19 aa
# T7 peptide: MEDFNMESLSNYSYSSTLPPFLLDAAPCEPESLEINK
# T8: pepN9-19 (human)
# T8 construct: Synthetic peptide, residues 9-19 of human CXCR2 (DSFEDFWKGED); also called NT9-19; pep9-19
# T8 peptide: DSFEDFWKGED
# Tests used:
# [1] = biological target: T1, human CXCR2 (hCXCR2) on cells; assay: cell-based or functional assay
# [2] = biological target: T2, pepN48 (peptide of the 48 N-terminal …); assay: SPR, Biacore T200; biotinylated pepN48 on SA chip;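 also: antibodies flowed in HBS-EP+ running buffer over the immobilized antigen at 0.5 to 10 nM, kinetic traces fitted to a protein-protein interaction model to derive constants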
# Description: Biotinylated antigen (purified protein or peptide) was loaded on the streptavidin coated surface of a SA biosensor chip (GE healthcare) to form a single molecular layer. The interaction between antibody and antigen was carried out on a Biacore T200 system (GE Healthcare). Briefly, testing antibody were serially diluted in a running buffer, HBS-EP+buffer (GE Healthcare), to different concentrations of 0.5, 1, 2, 5, 10 nM, and flowed through the surface of chip for the detection of molecular interaction between antigen and antibody. Kinetics of binding/dissociation were measured and fitted to an appropriate protein-protein interaction model to calculate the corresponding binding constant (KD).
# [3] = biological target: T3, rbCXCR2-mCherry; assay: FACS on transfected U2OS cells
# Description: (§1) Cells were transfected with expression plasmids containing target membrane proteins. After 24 hours, cells were detached from dish and re-suspended in a FACS buffer (0.5% BSA in PBS, with 2 mM EDTA). 500,000 cells per tube were incubated with 2 μg/mL corresponding antibody in a FACS buffer at 4° C. for 15 min. […] After two washes with the FACS buffer, cells were re-suspended in PBS and analyzed by CytoFLEX S (Beckman Coulter).
# [4] = biological target: T4, rCXCR2-mCherry; assay: FACS on transfected U2OS cells
# Description: as §1
# [5] = biological target: T5, hCXCR1-mCherry; assay: FACS on transfected U2OS cells (also immunofluorescence)
# Description: as §1
# [6] = biological target: T6, mCXCR2-mCherry; assay: as above
# Description: as §1
# [7] = biological target: T7, pepN48Δ9-19; assay: binding to truncated synthetic peptides (FIG. 9); method not named
# [8] = biological target: T8, pepN9-19; assay: as above
Molecule,Kd [2] [nM],koff [2] [s⁻¹],kon [2] [M⁻¹ s⁻¹],further results
GROα (CXCL1) (from UniProt P09341 35-107) (ligand),,,,"β-arrestin recruitment, Tango assay, apparent EC50 [1]: 5.3 nM"
IL8 (from UniProt P10145 28-99) (ligand),,,,"β-arrestin recruitment, Tango assay, apparent EC50 [1]: 4.5 nM"
"abN48-IgG1 (antibody, V domains shown, also called full-length abN48) VH: QVQLVQSGAEVKKPGSSVKVSCKASGGTLSSYAISWVRQAPGQGPEWMGWINPNSGGTNYAQKFQGRVTMTRDTSISTAYMELSRLRPDDTAVYYCASGYCSSTSCYDYWGQGTLVTVSS VL: QAVLTQPSSLSASPGASVSLTCTLRSGINVGAYRIYWYQQKPGSPPQFLLRYKSDSDKQQGSGVPSRFSGSRDASANAGILLISGLRSEDEADYYCAIWHSSAWVFGGGTQLTVLG",0.78,0.00035,350000,"binding result [3]: no binding (tested: 2 µg/mL); binding result [4]: no binding (tested: 2 µg/mL); binding result [5]: no binding (tested: 2 µg/mL); binding result [6]: no binding (tested: 2 µg/mL); inhibition of GROα-induced (EC80) β-arrestin recruitment, Tango assay, apparent IC50 [1]: 4.7 nM; inhibition of GROα-induced (EC90) Ca2+ influx, FLIPR, IC50 [1]: 1000 nM; inhibition of IL8-induced (EC80) β-arrestin recruitment, Tango assay, apparent IC50 [1]: 2.8 nM; inhibition of IL8-induced (EC90) Ca2+ influx, FLIPR, IC50 [1]: 190 nM"
"abN48 Fab (Fab, V domains shown, also called abN48 (Fab form); Fab form of abN48-IgG1) VH: QVQLVQSGAEVKKPGSSVKVSCKASGGTLSSYAISWVRQAPGQGPEWMGWINPNSGGTNYAQKFQGRVTMTRDTSISTAYMELSRLRPDDTAVYYCASGYCSSTSCYDYWGQGTLVTVSS VL: QAVLTQPSSLSASPGASVSLTCTLRSGINVGAYRIYWYQQKPGSPPQFLLRYKSDSDKQQGSGVPSRFSGSRDASANAGILLISGLRSEDEADYYCAIWHSSAWVFGGGTQLTVLG",,,,binding result [7]: no binding; binding result [8]: binds
"abN48-8 (antibody, V domains shown, format as tested not clearly stated) VH: QVQLVQSGAEVKKPGSSVKVSCKASGGTLSSYAISWVRQAPGQGPEWMGWINPNSGGTNYAQKFQGRVTMTRDTSISTAYMELSRLRPDDTAVYYCASGYCSRSRCYDYWGQGTLVTVSS VL: QAVLTQPSSLSASPGASVSLTCTLRSGINVGAYRIYWYQQKPGSPPQFLLRYKSDSDKQQGSGVPSRFSGSRDASANAGILLISGLRSEDEADYYCAIWHSSAWVFGGGTQLTVLG",0.016,2e-05,1.2e+06,
"abN48-7 (antibody, V domains shown, format as tested not clearly stated) VH: QVQLVQSGAEVKKPGSSVKVSCKASGGTLSSYAISWVRQAPGQGPEWMGWINPNSGGTNYAQKFQGRVTMTRDTSISTAYMELSRLRPDDTAVYYCASGYCGRARCTSFWGQGTLVTVSS VL: QAVLTQPSSLSASPGASVSLTCTLRSGINVGAYRIYWYQQKPGSPPQFLLRYKSDSDKQQGSGVPSRFSGSRDASANAGILLISGLRSEDEADYYCAIWHSSAWVFGGGTQLTVLG",0.012,0.00015,1.3e+07,
"abN48-6 (antibody, V domains shown, format as tested not clearly stated) VH: QVQLVQSGAEVKKPGSSVKVSCKASGGTLSSYAISWVRQAPGQGPEWMGWINPNSGGTNYAQKFQGRVTMTRDTSISTAYMELSRLRPDDTAVYYCASGYCSPSGCYVYWGQGTLVTVSS VL: QAVLTQPSSLSASPGASVSLTCTLRSGINVGAYRIYWYQQKPGSPPQFLLRYKSDSDKQQGSGVPSRFSGSRDASANAGILLISGLRSEDEADYYCAIWHSSAWVFGGGTQLTVLG",0.21,1.8e-05,85000,
"abN48-5 (antibody, V domains shown, format as tested not clearly stated) VH: QVQLVQSGAEVKKPGSSVKVSCKASGGTLSSYAISWVRQAPGQGPEWMGWINPNSGGTNYAQKFQGRVTMTRDTSISTAYMELSRLRPDDTAVYYCASGYCSRFNCKDYWGQGTLVTVSS VL: QAVLTQPSSLSASPGASVSLTCTLRSGINVGAYRIYWYQQKPGSPPQFLLRYKSDSDKQQGSGVPSRFSGSRDASANAGILLISGLRSEDEADYYCAIWHSSAWVFGGGTQLTVLG",≤ 0.0012,≤ 1e-06,810000,
"abN48-2 Fab (Fab, V domains shown, Made as abN48 Fab ('following a similar protocol'); also called abN48-2 (Fab form); Fab form of abN48-2-IgG2 (so in the source)) VH: QVQLVQSGAEVKKPGSSVKVSCKASGGTLSSYAISWVRQAPGQGPEWMGWINPNSGGTNYAQKFQGRVTMTRDTSISTAYMELSRLRPDDTAVYYCASGYCSRTRCYDYWGQGTLVTVSS VL: QAVLTQPSSLSASPGASVSLTCTLRSGINVGAYRIYWYQQKPGSPPQFLLRYKSDSDKQQGSGVPSRFSGSRDASANAGILLISGLRSEDEADYYCAIWHSSAWVFGGGTQLTVLG",,,,binding result [7]: no binding; binding result [8]: binds
"abN48-1 (antibody, V domains shown, Format as tested not clearly stated (sub-cloned to pFuse vector, expressed in HEK293T)) VH: QVQLVQSGAEVKKPGSSVKVSCKASGGTLSSYAISWVRQAPGQGPEWMGWINPNSGGTNYAQKFQGRVTMTRDTSISTAYMELSRLRPDDTAVYYCASGFCTRTICFVYWGQGTLVTVSS VL: QAVLTQPSSLSASPGASVSLTCTLRSGINVGAYRIYWYQQKPGSPPQFLLRYKSDSDKQQGSGVPSRFSGSRDASANAGILLISGLRSEDEADYYCAIWHSSAWVFGGGTQLTVLG",0.26,6.4e-05,250000,
"abN48-3 (antibody, V domains shown, format as tested not clearly stated) VH: QVQLVQSGAEVKKPGSSVKVSCKASGGTLSSYAISWVRQAPGQGPEWMGWINPNSGGTNYAQKFQGRVTMTRDTSISTAYMELSRLRPDDTAVYYCASGYCSFAICFDSWGQGTLVTVSS VL: QAVLTQPSSLSASPGASVSLTCTLRSGINVGAYRIYWYQQKPGSPPQFLLRYKSDSDKQQGSGVPSRFSGSRDASANAGILLISGLRSEDEADYYCAIWHSSAWVFGGGTQLTVLG",0.63,0.00016,360000,
"abN48-4 (antibody, V domains shown, format as tested not clearly stated) VH: QVQLVQSGAEVKKPGSSVKVSCKASGGTLSSYAISWVRQAPGQGPEWMGWINPNSGGTNYAQKFQGRVTMTRDTSISTAYMELSRLRPDDTAVYYCASGYCNRTRCYDHWGQGTLVTVSS VL: QAVLTQPSSLSASPGASVSLTCTLRSGINVGAYRIYWYQQKPGSPPQFLLRYKSDSDKQQGSGVPSRFSGSRDASANAGILLISGLRSEDEADYYCAIWHSSAWVFGGGTQLTVLG",0.031,1.6e-05,520000,
